Substitutions are numbered along the chain they refer to. Names may count otherwise. Blank lines part the entries; values can stand above or below the molecule they belong to.
Tests used:
[1] = molecular target: T1, SsArd1 (Saccharolobus solfataricus, UniProt Q980R9); assay: X-ray crystal structure, […] Å; format: binding; details: co-crystallised binary complex; CoA also in ternary complex with peptide
T1 construct: gene ard1; pET28a, C-terminal His6-tag, expressed in E. coli BL21(DE3); monomer

[2] = molecular target: T2, Sulfolobus solfataricus Ard1 (SsArd1), wild type (Sulfolobus solfataricus, UniProt Q980R9 1-167); assay: crystal structure; SsArd1-CoA crystals soaked with 2 mM Alba peptide (SSGTPT), dehydrated over 12.5% w/v PEG 4,000; ternary SsArd1-CoA/peptide complex at 1.84 Å; details: both partners purified
T2 construct: N-alpha-acetyltransferase Ard1 of Sulfolobus solfataricus (NatA family); one molecule in the asymmetric unit; also called wild-type SsArd1; source: E. coli BL21 (DE3), purified (Ni-Sepharose, size-exclusion chromatography)
T2 sequence: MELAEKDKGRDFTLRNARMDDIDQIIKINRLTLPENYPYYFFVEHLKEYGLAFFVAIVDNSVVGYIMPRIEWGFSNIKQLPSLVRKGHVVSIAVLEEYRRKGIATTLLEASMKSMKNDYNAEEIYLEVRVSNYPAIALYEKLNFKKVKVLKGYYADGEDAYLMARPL

[3] = molecular target: T3, SsArd1 E35V mutant (Sulfolobus solfataricus) (UniProt Q980R9)
T3 sequence: T2 sequence with E35V

[4] = molecular target: T4, SsArd1 E35A mutant (Sulfolobus solfataricus) (UniProt Q980R9)
T4 sequence: T2 sequence with E35A

[5] = molecular target: T5, SsArd1 E35F mutant (Sulfolobus solfataricus) (UniProt Q980R9)
T5 sequence: T2 sequence with E35F

[6] = substrate: CC(=O)SCCNC(=O)CCNC(=O)[C@H](O)C(C)(C)COP(=O)(O)OP(=O)(O)OC[C@H]1O[C@@H](n2cnc3c(N)ncnc32)[C@H](O)[C@@H]1OP(=O)(O)O; assay: Ellman (DTNB) acetyltransferase assay, Michaelis-Menten fit; format: biochemical, Saccharolobus solfataricus; details: saturating Alba peptide (SSGTPT), pH 8.0, 65°C
From the text: Ellman (DTNB) acetyltransferase assay, Michaelis-Menten fit on SsArd1

[7] = mutant given as R132A in Table 3, N132A in text

Molecule: CC(C)(COP(=O)(O)OP(=O)(O)OC[C@H]1O[C@@H](n2cnc3c(N)ncnc32)[C@H](O)[C@@H]1OP(=O)(O)O)[C@@H](O)C(=O)NCCC(=O)NCCS [CoA]
- X-ray crystal structure, 2.13 Å [1]: 4R3K for SsArd1-CoA and 4R3L for SsArd1-CoA/peptide

- binding result [2]: binds
B1: Alba peptide (SSGTPT), N-terminal 6-mer of the chromatin protein Alba (peptide)
peptide: SSGTPT
notes: N-terminal 6 residues of Alba of Sulfolobus solfataricus, which has Ser at its N-terminus; Only the first 2 residues are seen in the electron density of the ternary complex; also called Alba substrate peptide; 6-mer Alba peptide; source: synthetic peptide (GenScript)

- acetyltransferase activity with the SSB substrate peptide, against wild-type SsArd1 [3]: 5 fold
- acetyltransferase activity with the SSB substrate peptide, against wild-type SsArd1 [4]: 8 fold
B2: SSB peptide (MEEKVG), N-terminal 6-mer of the single-stranded DNA-binding protein SSB (peptide)
peptide: MEEKVG

- acetyltransferase activity with the Hjc substrate peptide, against wild-type SsArd1 and the E35A mutant [5]: 2 fold
- acetyltransferase activity with the Hjc substrate peptide, against wild-type SsArd1 and the E35A mutant [3]: 2 fold
B3: Hjc peptide (AAKKRG), N-terminal 6-mer of the Holliday junction-resolving enzyme Hjc (peptide)
peptide: AAKKRG

B4: SsArd1 (Saccharolobus solfataricus P2) (protein)
chain: T2 sequence
notes: pET28a, C-terminal His6-tag, expressed in E. coli BL21(DE3); monomer
- Km [6]: 67.17 ± 7.48 µM
- kcat [6]: 0.5595 ± 0.0275 s⁻¹
- kcat/Km [6]: 8370 M⁻¹ s⁻¹

B5: SsArd1 (Saccharolobus solfataricus P2; T105A) (protein)
chain: T2 sequence with T105A
notes: as for B4
- Km [6]: 195.89 ± 12.27 µM
- kcat [6]: 0.5818 ± 0.0205 s⁻¹
- kcat/Km [6]: 2970 M⁻¹ s⁻¹

B6: SsArd1 (Saccharolobus solfataricus P2; R100A) (protein)
chain: T2 sequence with R100A
notes: as for B4
- Km [6]: 466.98 ± 50.83 µM
- kcat [6]: 0.4783 ± 0.0448 s⁻¹
- kcat/Km [6]: 1020 M⁻¹ s⁻¹

B7: SsArd1 (Saccharolobus solfataricus P2; N132A) (protein)
chain: T2 sequence with N132A
notes: as for B4
- Km [6, 7]: 279.37 ± 75.86 µM
- kcat [6, 7]: 0.556 ± 0.0647 s⁻¹
- kcat/Km [6, 7]: 2050 M⁻¹ s⁻¹
